Target: M-L3-IL12 (masked mouse IL-12 whose linker contains 3 repeats of LSGRSDNH) (UniProt Q60837)
Sequence (Q60837 whole entry, looked up): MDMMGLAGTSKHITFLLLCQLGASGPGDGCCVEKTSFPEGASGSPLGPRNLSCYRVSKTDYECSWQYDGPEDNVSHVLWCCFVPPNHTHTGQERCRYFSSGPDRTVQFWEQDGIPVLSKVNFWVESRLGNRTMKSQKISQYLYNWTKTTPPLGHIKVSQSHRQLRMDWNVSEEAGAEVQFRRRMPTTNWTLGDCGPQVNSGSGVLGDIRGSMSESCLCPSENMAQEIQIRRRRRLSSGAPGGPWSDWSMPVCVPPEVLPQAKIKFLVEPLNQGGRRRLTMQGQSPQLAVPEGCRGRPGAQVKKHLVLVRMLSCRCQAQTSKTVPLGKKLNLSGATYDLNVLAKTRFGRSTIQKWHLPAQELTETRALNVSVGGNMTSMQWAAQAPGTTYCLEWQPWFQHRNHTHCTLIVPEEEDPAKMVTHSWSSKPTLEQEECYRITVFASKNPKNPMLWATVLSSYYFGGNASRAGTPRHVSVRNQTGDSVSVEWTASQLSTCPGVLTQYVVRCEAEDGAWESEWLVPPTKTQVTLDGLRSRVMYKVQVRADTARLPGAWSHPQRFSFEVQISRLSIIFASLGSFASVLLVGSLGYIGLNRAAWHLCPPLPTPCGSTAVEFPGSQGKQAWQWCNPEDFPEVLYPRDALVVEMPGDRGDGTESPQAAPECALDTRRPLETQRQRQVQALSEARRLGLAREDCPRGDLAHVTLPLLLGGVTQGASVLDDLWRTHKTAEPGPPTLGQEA

recombinant human urokinase plasminogen activator
in vitro cleavage, 30 min at 37° C., SDS-PAGE: Decrease of molecular weight from ˜105 kDa to ˜60 kDa indicates proteolytic cleavage of IL12Rβ1-VP-IL12 and IL12Rβ1-LS-IL12

— patent US20240228586
